The target in one test is H501-020. Briefly: BLI.
For another test, the target named is H501-003. Nature of the test: BLI.
The target of a further test is H501-012. Briefly: BLI.
The target in the next test is H501-016. Nature of the test: BLI.
The next test addresses H501-013. Briefly: BLI. In general terms: In BLI a coated tip is dipped into the sample, and binding shifts an interference pattern.
A further test has as its target H501-015. Briefly: BLI.
The target in another test is H501-009. Briefly: BLI.
The target of test [1] is T1, HCoV-HKU1 RBD (residues 310-606 of isolate N5), Fc- and His-tagged (HCoV-HKU1 (isolate N5), UniProt Q0ZME7 310-606).
T1 chain: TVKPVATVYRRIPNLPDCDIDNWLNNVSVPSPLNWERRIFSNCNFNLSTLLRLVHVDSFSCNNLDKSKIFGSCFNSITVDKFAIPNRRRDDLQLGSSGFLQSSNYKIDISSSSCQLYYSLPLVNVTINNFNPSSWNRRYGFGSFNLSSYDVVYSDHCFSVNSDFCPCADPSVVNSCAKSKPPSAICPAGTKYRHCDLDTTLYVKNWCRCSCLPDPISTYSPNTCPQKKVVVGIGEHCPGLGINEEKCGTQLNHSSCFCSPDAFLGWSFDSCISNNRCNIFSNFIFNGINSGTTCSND
Briefly: SPR. A general note: SPR reads the build-up and loss of mass on a sensor chip optically.

The target in test [2] is HCoV-OC43 S1-CTD (residues 318-608), Fc- and His-tagged (HCoV-OC43). Briefly: SPR.

This passage reports Kd and koff results from doi:10.1101/2025.10.29.685445 (2025).

One may read the Kd as a measure of binding affinity in units of concentration. Read a low Kd as tighter binding. Usually koff stands for a measure of how fast the partners let go of each other.

B1: HCoV-HKU1 RBD (residues 310-606 of isolate N5), as used in BLI (domain or fragment)
chain: TVKPVATVYRRIPNLPDCDIDNWLNNVSVPSPLNWERRIFSNCNFNLSTLLRLVHVDSFSCNNLDKSKIFGSCFNSITVDKFAIPNRRRDDLQLGSSGFLQSSNYKIDISSSSCQLYYSLPLVNVTINNFNPSSWNRRYGFGSFNLSSYDVVYSDHCFSVNSDFCPCADPSVVNSCAKSKPPSAICPAGTKYRHCDLDTTLYVKNWCRCSCLPDPISTYSPNTCPQKKVVVGIGEHCPGLGINEEKCGTQLNHSSCFCSPDAFLGWSFDSCISNNRCNIFSNFIFNGINSGTTCSND
As to B1, the dissociation constant Kd with H501-020 is below 0.001 nM; with H501-003, 0.508 nM; with H501-012, 1.87 nM; in the test with H501-016, 0.176 nM; in the test with H501-013 it was 0.915 nM; with H501-015, 0.568 nM. The Kd with H501-009 was found to be 5.44 nM. Further, the koff is below 1e-07 s⁻¹ with H501-020; 0.000326 s⁻¹ with H501-012; 3.26e-05 s⁻¹ in the test with H501-016; 0.000209 s⁻¹ with H501-013; 0.000117 s⁻¹ with H501-015; 0.000383 s⁻¹ with H501-009.

B2: H501-008 Fab (Fab, V domains shown)
VH: QVQLVQSGGGVVQPGRSLRLSCAVSGFTLDRYAMHWVRQAPGKALEWVALMSADGREQYYAESVKGRFTFSRDSSKNTLYLQMHNLRTDDSSVYFCAREGPMYYDAWSGRSYYNNYALDVWGRGTTVAVSS
VL: QSVLTQPPSVSAAPGQTVTISCSGSSSNIGDNYVSWYQQVPGTAPRLLVYDNNRRPLGIPDRFSGSKSGTSATLAIAGLQTGDEADYYCGTWDSSLSAGVFGGGTKLTVV
In the case of B2, the koff in [1] stood at 0.000197 s⁻¹; in test [2], 0.042 s⁻¹.
